PMC3821618

Target: TagRFP-T (Entacmaea quadricolor)
Experiment: fluorescence correlation spectroscopy (FCS), molecular brightness analysis; live transfected mouse GHFT1 cells, cytosol; molecular brightness Mb = CPS/(N*Po) from one-component autocorrelation fits, compared with published intrinsic brightness and between FP alone and FP-BZip; 561 nm excitation, 36 °C, 5% CO2

- fraction of the molecules that are dimers: 30%
Substance: TagRFP-T
